Positions count from the first letter of the chain named.

To fix the notation:
B1: F02 anti-PD-1 antibody (antibody, V domains shown)
VH: QQPGAELVKPGASVKLSCRASGYTFTNYYLYWVKQRPGQGLEWIGGINPSNGGTNFNEKFRGKATLTVDKSSSTAYMQLSSLTSEDSAVYFCTRRDYNYDGGFDYWGQGSTLTVSS
VL: DIVLTQSPASLAVSLGQRATISCRASKSVSTSGFNYMHWYQQKPGQPPKLLIYLASNLDSGVPARFSGSGSGTDFTLNIHPVEEEDAATYYCQHGRELPLTFGAGTKLELRR
notes: Mouse monoclonal antibody from hybridoma clone #11, detected with anti-mouse IgG F(ab')2; Only the variable domains are tied to F02; also called anti-PD-1 antibody from hybridoma clone #11; clone #11
B2: Ab8 anti-PD-1 antibody (antibody, V domains shown)
VH: EVQLQESGAEVKKPGSSVKVSCKASGYTFTNYYLYWVRQAPGQGLEWMGGINPSNGGTNFNEKFRGRVTITADESTSTAYMELSSLRSEDTAVYYCARRDYNYDGGFDYWGQGTTVTVSS
VL: DIVMTQSPDSLAVSLGERATINCRASKSVSTSGFNYMHWYQQKPGQPPKLLIYLASNLDSGVPDRFSGSGSGTDFTLTIRPLQAEDVAVYYCQHGRELPLTFGQGTKLEIK
notes: Humanized antibody, detected with anti-human IgG Fc
B3: Ab7 anti-PD-1 antibody (antibody, V domains shown)
VH: B2 VH with E1Q, E6Q, K23R, M48I, T76S, S77T, V93F, Y95F, A97T
VL: DIVMTQSPSSLSASVGDRVTITCRASKSVSTSGFNYMHWYQQTPGKAPKLLIYLASNLDSGVPARFSGSGSGTDFTFTISSLQEEDIATYYCFHGRELPLTFGQGTKLQITR
notes: as for B2
B4: h11 anti-PD-1 antibody (antibody, V domains shown)
VH: QVQLVQSGAEVKKPGASVKVSCKASGYTFTNYYMYWVRQAPGQGLEWIGGINPSNGGTNFNEKFKNKATMTVDKSTSTAYMELSSLRSEDTAVYYCTRRDYNYDGGFDYWGQGTLVTVSS
VL: DIVLTQSPATLSLSPGERATLSCRASKSVSTSGFNYMHWYQQKPGQAPRLLIFLASNLASGVPARFSGSGSGTDFTLTISSLEPEDFAVYYCQHGRELPLTFGQGTKLEI
notes: Humanized antibody derived from F02, detected with anti-human IgG Fc; also called hl 1
B5: Ab5 anti-PD-1 antibody (antibody, V domains shown)
VH: B2 VH with E1Q, E6Q, M48I, T76S, S77T, V93F, Y95F, A97T
VL: B3 VL
notes: as for B2
B6: Ab4 anti-PD-1 antibody (antibody, V domains shown)
VH: B2 VH with E1Q, E6Q, M48I, T76S, S77T, V93F, Y95F, A97T
VL: B3 VL with V3Q
notes: as for B2
B7: Ab2 anti-PD-1 antibody (antibody, V domains shown)
VH: B2 VH with E1Q, E6Q, M48I, T76S, S77T, V93F, Y95F, A97T
VL: B3 VL with V3Q, A64S, E84P
notes: as for B2

In one experiment the target is T1, human PD-1 protein (hPD-1) on cell surface of 293T-PD-1 cells (human, UniProt Q15116 25-287).
T1 construct: Human PD-1 expressed in HEK293T cells, either by lentiviral transduction or by the pCMV6-ENTRY PDCD1 cDNA RC210364; also called PDCD1 (RC210364) in HEK293T cells
T1 sequence (Q15116 25-287 limits assumed): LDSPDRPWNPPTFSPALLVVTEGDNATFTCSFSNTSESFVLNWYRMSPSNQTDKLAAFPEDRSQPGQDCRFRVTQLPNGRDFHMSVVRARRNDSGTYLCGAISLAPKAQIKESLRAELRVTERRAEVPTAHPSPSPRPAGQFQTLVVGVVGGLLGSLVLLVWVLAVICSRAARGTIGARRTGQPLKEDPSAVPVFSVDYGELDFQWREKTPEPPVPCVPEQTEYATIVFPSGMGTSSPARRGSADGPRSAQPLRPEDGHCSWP
The experiment is described as follows: flow cytometry on 293T-PD-1 cells, 4 C for 60 min, secondary FITC-anti-Mouse IgG F(ab')2; y axis hPD-1%. The protocol: (§1) The cells were then stained with a secondary antibody (APC-anti-Hu IgG Fc for humanized antibodies and FITC-anti-Mouse IgG F(ab′)2 for F02) for 30 minutes (1:50), followed by flow cytometric analysis. The results were analyzed through Prism 7 and Kd values were determined by the program.
As for B1, the concentration giving a half-maximal response (EC50 (read off the curve)) is about 0.01 µg/mL.

In another experiment the target is T2, recombinant biotinylated human PD-1 (human, UniProt Q15116 25-170, limits assumed, biotinylated (site not stated)).
T2 construct: also called rhPD-1; recombinant human PD-1 protein
T2 sequence (Q15116 25-170 limits assumed): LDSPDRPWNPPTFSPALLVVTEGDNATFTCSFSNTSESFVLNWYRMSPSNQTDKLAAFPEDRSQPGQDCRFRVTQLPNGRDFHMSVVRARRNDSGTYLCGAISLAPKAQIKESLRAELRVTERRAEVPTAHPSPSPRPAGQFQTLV
The experiment is described as follows: ELISA, antibody coated, biotinylated rhPD-1 titrated, Sav-HRP detection. The protocol: 5 μg/ml of anti-PD1 antibody in 100 μl coating buffer was coated in the microwells at 4° C. overnight. By following the ELISA procedure, a 5-fold serial dilution of recombinant biotinylated human PD-1 was added to the assay plate pre-coated with anti-PD1 antibodies. The bound human PD-1 protein was then detected with Sav-HRP reagent. The results were analyzed through Prism 7 and Kd values were determined by the program.
In the case of B2, the Kd was 0.32 nM.

For B3, the Kd worked out at 0.68 nM.

B1: the Kd came to 0.14 nM.

Consider B4, for which the Kd turned out to be 0.29 nM.

For another experiment, the target named is T1, human PD-1 protein (hPD-1) on cell …. The experiment is described as follows: flow cytometry on 293T-PD-1 cells, 4 C for 60 min, secondary APC-anti-Hu IgG Fc; y axis hPD-1%. The protocol:
as §1
Take B5: the “EC50 (read off the curve)” value was about 0.5 µg/mL.

On to B6, for which the “EC50 (read off the curve)” value was about 3 µg/mL.

As for B2, the 50% effective concentration (EC50 (read off the curve)) was about 0.1 µg/mL.

B3: the “EC50 (read off the curve)” value was about 0.3 µg/mL.

Regarding B7, the concentration giving a half-maximal response (EC50 (read off the curve)) was about 0.4 µg/mL.

For B4, the concentration giving a half-maximal response (EC50 (read off the curve)) is about 0.07 µg/mL.

The target is the same in the next experiment. Briefly: flow cytometry on 293T-PD-1 cells. The protocol: as §1
As to B5, the Kd was 3.69 nM.

In turn, B6 had a Kd of 41 nM.

For B2, the affinity, expressed as Kd, was 0.65 nM.

For B3, the equilibrium dissociation constant (Kd) was determined as 2.3 nM.

B7 displayed a Kd of 3.24 nM.

For B1, the Kd worked out at 0.07 nM.

B4 registered an equilibrium dissociation constant (Kd) of 0.55 nM.

Values taken from US20220195047A1 (TCRCURE BIOPHARMA, published 2022).
